Experimental findings from patent US20230056992A1 (AGGAMIN, published 2023) are described below.

The target in assay [1] is T1, endogenous sEng in pre-eclamptic patient serum (human, UniProt P17813 26-586).
T1 construct: Native protein in patient serum; the isoform or cleavage product is not defined; also called circulating sEng
T1 sequence (looked up): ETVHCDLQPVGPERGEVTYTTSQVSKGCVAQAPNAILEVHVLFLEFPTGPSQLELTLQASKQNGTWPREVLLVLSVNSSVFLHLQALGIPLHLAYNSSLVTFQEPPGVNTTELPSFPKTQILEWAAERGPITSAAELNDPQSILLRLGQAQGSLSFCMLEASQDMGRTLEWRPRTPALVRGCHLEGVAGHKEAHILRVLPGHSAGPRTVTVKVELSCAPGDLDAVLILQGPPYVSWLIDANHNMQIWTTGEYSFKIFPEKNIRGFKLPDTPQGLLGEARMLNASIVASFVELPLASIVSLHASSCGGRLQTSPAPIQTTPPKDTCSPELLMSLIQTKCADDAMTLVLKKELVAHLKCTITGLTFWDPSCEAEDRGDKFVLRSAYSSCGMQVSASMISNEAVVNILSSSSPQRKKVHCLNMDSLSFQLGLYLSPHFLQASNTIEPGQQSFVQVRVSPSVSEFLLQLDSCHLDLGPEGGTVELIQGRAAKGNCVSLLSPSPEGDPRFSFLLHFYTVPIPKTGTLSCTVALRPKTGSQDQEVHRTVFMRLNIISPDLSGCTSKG
The assay can be described thus: 0.1 mL column of antibody-conjugated beads, pre-eclamptic patient serum. Here is the method:
(§1) Circulating sEng and sFlt-1 proteins are elevated in pre-eclampsia patients and are postulated to be major causal factors of disease onset and progression. To test whether a cENG10/AG10B dual device is capable of removing these endogenous sEng and sFlt-1 proteins from patient serum, micro-scale 0.1 mL columns conjugated with cENG10, AG10B, or both cENG10 and AG10B MAbs were prepared. cENG10 column specifically removed>90% of endogenous sEng in pre-eclamptic serum but not endogenous sFlt-1, and the AG10B column specifically removed>90% of endogenous sFlt-1 in pre-eclamptic serum but not endogenous sEng. The cENG10/AG10B dual device column, in which a mixture of the two antibodies at 1 mg each per mL beads were conjugated simultaneously, removed>90% of both sEng and sFlt-1 proteins.

The target in assay [2] is T2, purified recombinant human sEng (human Endoglin ectodomain residues 26 to 586 with C-terminal 6x His tag, … (human, UniProt P17813 26-586)).
T2 construct: range 26-586; also called spiked sEng; recombinant human sEng (amino acid residues 26-586)
T2 sequence: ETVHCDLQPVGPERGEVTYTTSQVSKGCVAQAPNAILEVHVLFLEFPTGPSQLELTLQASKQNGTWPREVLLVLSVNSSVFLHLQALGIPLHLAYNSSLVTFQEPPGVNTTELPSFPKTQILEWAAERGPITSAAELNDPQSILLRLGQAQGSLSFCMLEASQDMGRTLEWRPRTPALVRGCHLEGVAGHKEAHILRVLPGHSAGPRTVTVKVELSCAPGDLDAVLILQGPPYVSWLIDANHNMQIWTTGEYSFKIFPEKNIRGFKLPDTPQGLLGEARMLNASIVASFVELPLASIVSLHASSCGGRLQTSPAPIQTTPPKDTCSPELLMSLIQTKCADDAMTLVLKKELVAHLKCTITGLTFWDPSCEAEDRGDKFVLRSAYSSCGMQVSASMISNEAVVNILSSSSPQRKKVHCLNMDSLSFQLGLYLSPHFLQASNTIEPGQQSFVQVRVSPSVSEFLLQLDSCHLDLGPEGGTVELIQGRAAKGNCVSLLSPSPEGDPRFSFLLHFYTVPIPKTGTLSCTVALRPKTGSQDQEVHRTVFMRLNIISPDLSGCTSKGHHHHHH
Nature of the assay: 1 mL column, 0.2 mg MAb per mL Sepharose beads, flow rates 0.25-2.00 mL/min; input vs flow-through. How it is done:
A 1-ml cENG10 device column was evaluated for depletion of spiked sEng in horse serum. For each column, 0.2 mg cENG10 or AG10B MAb was covalently conjugated to 1 mL of CNBr-activated Sepharose 4FF beads for 0.2 mg per mL beads ratio. For each test, 10 mL of serum containing 60 ng/mL of sEng, median concentration in severe pre-eclampsia patients, was applied for one cycle over the column. The first 1 ml containing pre-equilibration buffer was not collected in the flow-through (FT) fraction and the last 1 mL of input remaining in column was chased with 1 CV of PBS buffer and pooled into the FT fraction. The % sEng depletion was calculated by dividing the difference in concentration between input and FT by input concentration: […]

Assay [3] deals with T3, endogenous sFlt-1 in pre-eclamptic patient serum (human, UniProt P17948-2 27-687, limits assumed).
T3 construct: Native protein in patient serum; the isoform is not defined; also called circulating sFlt-1
Nature of the assay: 0.1 mL column of antibody-conjugated beads, pre-eclamptic patient serum. How it is done:
as §1

T3 sequence (P17948 other isoform, or with tags, fused parts or gaps limits assumed): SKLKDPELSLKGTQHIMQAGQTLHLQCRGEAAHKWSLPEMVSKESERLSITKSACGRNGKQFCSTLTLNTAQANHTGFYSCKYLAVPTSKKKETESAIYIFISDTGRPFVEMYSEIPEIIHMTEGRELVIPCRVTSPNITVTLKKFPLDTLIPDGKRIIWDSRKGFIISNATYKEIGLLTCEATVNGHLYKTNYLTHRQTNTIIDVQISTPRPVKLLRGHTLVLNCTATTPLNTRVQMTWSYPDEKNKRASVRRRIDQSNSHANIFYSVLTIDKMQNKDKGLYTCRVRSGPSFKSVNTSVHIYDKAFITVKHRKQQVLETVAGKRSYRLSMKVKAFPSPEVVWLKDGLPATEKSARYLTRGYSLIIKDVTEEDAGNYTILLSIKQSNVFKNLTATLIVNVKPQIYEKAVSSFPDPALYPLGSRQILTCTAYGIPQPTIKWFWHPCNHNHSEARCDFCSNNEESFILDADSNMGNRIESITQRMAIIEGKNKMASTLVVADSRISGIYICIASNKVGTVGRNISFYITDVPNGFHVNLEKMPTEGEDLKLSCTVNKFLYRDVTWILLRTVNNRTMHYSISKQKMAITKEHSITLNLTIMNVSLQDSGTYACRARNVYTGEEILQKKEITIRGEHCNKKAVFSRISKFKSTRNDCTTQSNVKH

B1: chimeric anti-sFlt-1 antibody AG10B (antibody, V domains shown)
VH: QVQLQQSGPELVKPGASVKMSCKASGYTFTDYVISWVKQRTGQGLEWIGEIYPGSGSIYYNEKFKGKATLTADTSSNTAYMQLSSLTFEDSAVIFCARGHYYGYFDYWGQGTTLTVSS
VL: DIVMTQSHKFMSTSVGDRVSITCKASQDVTITVAWYQQKPGQSPKLLIYSASYRYTGVPDRFTGSGSGTDFTFTISSVQAEDLAVYYCQQHYTTPWTFGGGTKLEIKR
notes: Chimeric mouse/human IgG1 kappa with N298Q; It served as the negative control for sEng depletion; also called AGB10; AB10B
Turning to B1, the figures for the binding result in assay [1] and in assay [2] were “no binding” and “no binding (tested: 60 ng/mL sEng in 10 mL horse serum)”, respectively.

B2: chimeric anti-sEng antibody cENG10 (antibody, human IgG1, kappa, N297Q, V domains shown)
VH: EVQLEQSGPEVVKPGTSVKISCKTSGYTITEHTLHWIKQNQGKSLEWIGGINFDNGGTTYRQKFKDKATLTVDKSSSTAFMELRSLTSDDSAVYFCARRAYYYGSAFDYWGQGTTLTVSS
VL: ENVLTQSPAIMSASLGEKVTMTCRASSSVNYVYWYQQKSDASPKLWIYYTSNLAPGVPARFSGSGSGNSYSLTISSMEGEDAATYYCQQFISFPYTFGGGTKLEIKR
notes: Chimeric mouse/human IgG1 kappa with N300Q; also called anti-human sEng MAb; cENG10 column
As to B2, in assay [3], the binding result was “no binding”.
